From US20160194394A1 (GOVERNING COUNCIL OF THE UNIVERSITY OF TORONTO, published 2016)
Residue numbers refer to the chain shown, from its start.

B1: B11 (Fab)
light: DIQMTQSPSSLSASVGDRVTITCRASQSVSSAVAWYQQKPGKAPKLLIYSASSLYSGVPSRFSGSRSGTDFTLTISSLQPEDFATYYCQQYFYSSYSPITFGQGTKVEIKRTVAAPSVFIFPPSDSQLKSGTASVVCLLNNFYPREAKVQWKVDNALQSGNSQESVTEQDSKDSTYSLSSTLTLSKADYEKHKVYACEVTHQGLSSPVTKSFNRGECGGS
heavy: EVQLVESGGGLVQPGGSLRLSCAASGFNISYSYMHWVRQAPGKGLEWVAYIYPSYSSTSYADSVKGRFTISADTSKNTAYLQMNSLRAEDTAVYYCARASYWALDYWGQGTLVTVSSASTKGPSVFPLAPSSKSTSGGTAALGCLVKDYFPEPVTVSWNSGALTSGVHTFPAVLQSSGLYSLSSVVTVPSSSLGTQTYICNVNHKPSNTKVDKKVEPKSC
notes: selection round 2; also called Fzd7-R2-B11
B2: H8 (Fab)
light: B1 light with Y91S, S94W, S95G, S97P, I99F
heavy: EVQLVESGGGLVQPGGSLRLSCAASGFNIYSSSIHWVRQAPGKGLEWVASIYSYYGYTYYADSVKGRFTISADTSKNTAYLQMNSLRAEDTAVYYCARWYAFDYWGQGTLVTVSSASTKGPSVFPLAPSSKSTSGGTAALGCLVKDYFPEPVTVSWNSGALTSGVHTFPAVLQSSGLYSLSSVVTVPSSSLGTQTYICNVNHKPSNTKVDKKVEPKSC
notes: selection round 2; also called Fzd7-R2-H8
B3: A7 (Fab)
light: DIQMTQSPSSLSASVGDRVTITCRASQSVSSAVAWYQQKPGKAPKLLIYSASSLYSGVPSRFSGSRSGTDFTLTISSLQPEDFATYYCQQYHYGYYPFTFGQGTKVEIKRTVAAPSVFIFPPSDSQLKSGTASVVCLLNNFYPREAKVQWKVDNALQSGNSQESVTEQDSKDSTYSLSSTLTLSKADYEKHKVYACEVTHQGLSSPVTKSFNRGECGGS
heavy: B1 heavy with I29L, Y31S, M34I, P53S, S56G, S59Y, Y101W, L104I
notes: selection round 2; also called Fzd7-R2-A7
B4: B2 (Fab)
light: DIQMTQSPSSLSASVGDRVTITCRASQSVSSAVAWYQQKPGKAPKLLIYSASSLYSGVPSRFSGSRSGTDFTLTISSLQPEDFATYYCQQAYAYLITFGQGTKVEIKRTVAAPSVFIFPPSDSQLKSGTASVVCLLNNFYPREAKVQWKVDNALQSGNSQESVTEQDSKDSTYSLSSTLTLSKADYEKHKVYACEVTHQGLSSPVTKSFNRGECGGS
heavy: EVQLVESGGGLVQPGGSLRLSCAASGFNISYSSMHWVRQAPGKGLEWVASISSSYGYTYYADSVKGRFTISADTSKNTAYLQMNSLRAEDTAVYYCARSGGHFYYWYVAAAMDYWGQGTLVTVSSASTKGPSVFPLAPSSKSTSGGTAALGCLVKDYFPEPVTVSWNSGALTSGVHTFPAVLQSSGLYSLSSVVTVPSSSLGTQTYICNVNHKPSNTKVDKKVEPKSC
notes: selection round 2; not the round 3 clone B2 (f33); also called Fzd7-R2-B2
B5: C12 (Fab)
light: B4 light with A91S, Y92S, A93Y, Y94S
heavy: EVQLVESGGGLVQPGGSLRLSCAASGFNLSYSYMHWVRQAPGKGLEWVASIYSSYGYTSYADSVKGRFTISADTSKNTAYLQMNSLRAEDTAVYYCARYYGWAYYYSYFPAWAGGGIDYWGQGTLVTVSSASTKGPSVFPLAPSSKSTSGGTAALGCLVKDYFPEPVTVSWNSGALTSGVHTFPAVLQSSGLYSLSSVVTVPSSSLGTQTYICNVNHKPSNTKVDKKVEPKSC
notes: selection round 2; same four CDRs as Fzd7-R3-B2 (f33); also called Fzd7-R2-C12
B6: E11 (Fab)
light: B3 light with H92S, Y96A, P97L
heavy: EVQLVESGGGLVQPGGSLRLSCAASGFNLSSYYMHWVRQAPGKGLEWVASIYPYYSYTYYADSVKGRFTISADTSKNTAYLQMNSLRAEDTAVYYCARYWSGFDYWGQGTLVTVSSASTKGPSVFPLAPSSKSTSGGTAALGCLVKDYFPEPVTVSWNSGALTSGVHTFPAVLQSSGLYSLSSVVTVPSSSLGTQTYICNVNHKPSNTKVDKKVEPKSC
notes: selection round 2; also called Fzd7-R2-E11
B7: F9 (Fab)
light: B3 light with Y91W, H92Y, Y95W, Y96H, P97L, F98I
heavy: EVQLVESGGGLVQPGGSLRLSCAASGFNISYSSIHWVRQAPGKGLEWVASIYPSYGYTYYADSVKGRFTISADTSKNTAYLQMNSLRAEDTAVYYCARYGYFGMDYWGQGTLVTVSSASTKGPSVFPLAPSSKSTSGGTAALGCLVKDYFPEPVTVSWNSGALTSGVHTFPAVLQSSGLYSLSSVVTVPSSSLGTQTYICNVNHKPSNTKVDKKVEPKSC
notes: selection round 2; also called Fzd7-R2-F9
B8: G1 (Fab)
light: DIQMTQSPSSLSASVGDRVTITCRASQSVSSAVAWYQQKPGKAPKLLIYSASSLYSGVPSRFSGSRSGTDFTLTISSLQPEDFATYYCQQWGYGALITFGQGTKVEIKRTVAAPSVFIFPPSDSQLKSGTASVVCLLNNFYPREAKVQWKVDNALQSGNSQESVTEQDSKDSTYSLSSTLTLSKADYEKHKVYACEVTHQGLSSPVTKSFNRGECGGS
heavy: B7 heavy with Y55P, Y59S, Y99H, Y101W, F102Y, M104L
notes: selection round 2; same four CDRs as Fzd7-R2-G12 (f18); also called Fzd7-R2-G1
B9: G12 (Fab)
light: B8 light
heavy: B7 heavy with Y55P, Y59S, Y99H, Y101W, F102Y, M104L
notes: selection round 2; also called Fzd7-R2-G12

Experiments:
Fc control protein [1] = biological target: T1, Fc control protein; assay: ELISA, 1ug/ml (20nM) Fab [cont'd]
T1 construct: also called Fc protein; control Fc protein
Procedure: (§1) FIG. 2B is a table depicting the binding of purified Fabs to purified FZD7-Fc measured by ELISA. Fabs purified from 25 ml bacterial cultures were assayed for binding to FZD7-Fc fusion protein (R&D systems) and Fc protein. ELISA plates (384 well) were coated with 2 ug/ml of protein in PBS overnight at four degrees. Wells were blocked with 0.5% BSA/PBS for 1 hour at room temperature, washed three times with 0.05% Tween20/PBS (wash buffer), and then primary dilutions of Fabs in 0.5% BSA/0.05% Tween20/PBS (dilution buffer) were added at indicated concentrations. Fabs were incubated for 1 hour at room temperature, wells were washed six times, and anti-FLAG-HRP (Sigma) was added at 1:5000 in dilution buffer. Secondary antibody was incubated for 45 minutes at room temperature, and wells were washed six times and developed with TMB substrate with an acid stop. The absorbance at 450 nm was read. n.t.=not tested.

[2] = biological target: T2, recombinant Frizzled receptor 7 (FZD7) cysteine-rich domain (CRD) fused to the Fc region of human IgG (human, UniProt O75084 33-185); assay: ELISA, 1ug/ml (20nM) Fab [cont'd]
Procedure: as §1

[3] = biological target: T3, FZD7 receptor expressed on cells (full-length) (UniProt O75084 33-574, limits assumed); assay: flow cytometry, 200 nM Fab, FZD7 over-expression line (MDA MB 231) [cont'd]
T3 construct: whole, on cells; MDA MB 231 cells may carry other Frizzled receptors too; also called full-length FZD7 receptor; endogenous receptor on MDA MB 231 cells
Procedure: (§2) FIG. 3 is a table depicting the binding of the purified Fabs to cells expressing FZD7 (flow cytometry). Small scale Fabs were assayed for binding to full-length FZD7 receptor to an over-expression line in MDA MB 231 cells. In parallel, Fabs were assayed for binding to endogenous receptor expressed on the MDA MB 231 cells. Cells were harvested using an EDTA solution, blocked in 2% FBS/PBS (stain buffer), and stained with 200 nM Fab for 30 min on ice. Cells were washed two times with stain buffer and incubated with anti-F(ab′)₂-APC secondary antibody (Jackson Immuno) at 1:1000 for 15 minutes on ice. All antibodies were diluted in stain buffer. Cells were washed three times with stain buffer and then fixed with 1% paraformaldehye for analysis by flow cytometry. […] The percent of the cell population within the positive gates is indicated.

[4] = biological target: T3, FZD7 receptor expressed on cells …; assay: flow cytometry, 200 nM Fab, MDA MB 231 [cont'd]
Procedure: as §2

Fc control protein [5] = biological target: T1, Fc control protein; assay: ELISA, 10ug/ml (200nM) Fab [cont'd]
Procedure: as §1

[6] = biological target: T2, recombinant Frizzled receptor 7 (FZD7) …; assay: ELISA, 10ug/ml (200nM) Fab [cont'd]
Procedure: as §1

Fc control protein [7] = biological target: T1, Fc control protein; assay: ELISA, 1ug/ml (20nM) Fab
Procedure: as §1

[8] = biological target: T2, recombinant Frizzled receptor 7 (FZD7) …; assay: ELISA, 1ug/ml (20nM) Fab
Procedure: as §1

[9] = biological target: T3, FZD7 receptor expressed on cells …; assay: flow cytometry, 200 nM Fab, MDA MB 231
Procedure: as §2

[10] = biological target: T3, FZD7 receptor expressed on cells …; assay: flow cytometry, 200 nM Fab, FZD7 over-expression line (MDA MB 231)
Procedure: as §2

Fc control protein [11] = biological target: T1, Fc control protein; assay: ELISA, 10ug/ml (200nM) Fab
Procedure: as §1

[12] = biological target: T2, recombinant Frizzled receptor 7 (FZD7) …; assay: ELISA, 10ug/ml (200nM) Fab
Procedure: as §1

| Binder | OD 450 (Fc control protein [1]) | OD 450 [2] | % population within the positive gate [3] | % population within the positive gate [4] | OD 450 (Fc control protein [5]) | OD 450 [6] | OD 450 (Fc control protein [7]) | OD 450 [8] | % population within the positive gate [9] | % population within the positive gate [10] | OD 450 (Fc control protein [11]) | OD 450 [12] |
| --- | --- | --- | --- | --- | --- | --- | --- | --- | --- | --- | --- | --- |
| B1 | 0.05 | 3.15 | 91.2% | 97.2% | 0.08 | 3.2 |  |  |  |  |  |  |
| B2 | 0.06 | 0.78 | 79.6% | 1.1% | 0.08 | 2.7 |  |  |  |  |  |  |
| B3 | 0.07 | 3.19 | 92.7% | 96.3% | 0.07 | 3.22 |  |  |  |  |  |  |
| B4 | 0.06 | 3.19 | 86.8% | 7.1% | 0.13 | 3.18 |  |  |  |  |  |  |
| B5 | 0.05 | 2.87 | 86.9% | 11.9% | 0.07 | 3.15 |  |  |  |  |  |  |
| B6 |  |  |  |  |  |  | 0.05 | 3.24 | 99.2% | 94.2% | 0.06 | 3.22 |
| B7 |  |  |  |  |  |  | 0.06 | 3.11 | 50.3% | 88.3% | 0.06 | 3.16 |
| B8 |  |  |  |  |  |  | 0.05 | 3.17 | 28.6% | 83.4% | 0.05 | 3.18 |
| B9 |  |  |  |  |  |  | 0.06 | 3.13 | 33.3% | 83.8% | 0.14 | 3.19 |
